The record followed here is article PMC10281804 (2023).

To fix the notation:
B1: mCherry-KANK1 wild type (human full-length KANK1) [human] / GFP-talin1-cBAK [mouse] (parent complex)
chain 1: MAHTTKVNGSASGKAGDILSGDQDKEQKDPYFVETPYGYQLDLDFLKYVDDIQKGNTIKRLNIQKRRKPSVPCPEPRTTSGQQGIWTSTESLSSSNSDDNKQCPNFLIARSQVTSTPISKPPPPLETSLPFLTIPENRQLPPPSPQLPKHNLHVTKTLMETRRRLEQERATMQMTPGEFRRPRLASFGGMGTTSSLPSFVGSGNHNPAKHQLQNGYQGNGDYGSYAPAAPTTSSMGSSIRHSPLSSGISTPVTNVSPMHLQHIREQMAIALKRLKELEEQVRTIPVLQVKISVLQEEKRQLVSQLKNQRAASQINVCGVRKRSYSAGNASQLEQLSRARRSGGELYIDYEEEEMETVEQSTQRIKEFRQLTADMQALEQKIQDSSCEASSELRENGECRSVAVGAEENMNDIVVYHRGSRSCKDAAVGTLVEMRNCGVSVTEAMLGVMTEADKEIELQQQTIESLKEKIYRLEVQLRETTHDREMTKLKQELQAAGSRKKVDKATMAQPLVFSKVVEAVVQTRDQMVGSHMDLVDTCVGTSVETNSVGISCQPECKNKVVGPELPMNWWIVKERVEMHDRCAGRSVEMCDKSVSVEVSVCETGSNTEESVNDLTLLKTNLNLKEVRSIGCGDCSVDVTVCSPKECASRGVNTEAVSQVEAAVMAVPRTADQDTSTDLEQVHQFTNTETATLIESCTNTCLSTLDKQTSTQTVETRTVAVGEGRVKDINSSTKTRSIGVGTLLSGHSGFDRPSAVKTKESGVGQININDNYLVGLKMRTIACGPPQLTVGLTASRRSVGVGDDPVGESLENPQPQAPLGMMTGLDHYIERIQKLLAEQQTLLAENYSELAEAFGEPHSQMGSLNSQLISTLSSINSVMKSASTEELRNPDFQKTSLGKITGNYLGYTCKCGGLQSGSPLSSQTSQPEQEVGTSEGKPISSLDAFPTQEGTLSPVNLTDDQIAAGLYACTNNESTLKSIMKKKDGNKDSNGAKKNLQFVGINGGYETTSSDDSSSDESSSSESDDECDVIEYPLEEEEEEEDEDTRGMAEGHHAVNIEGLKSARVEDEMQVQECEPEKVEIRERYELSEKMLSACNLLKNTINDPKALTSKDMRFCLNTLQHEWFRVSSQKSAIPAMVGDYIAAFEAISPDVLRYVINLADGNGNTALHYSVSHSNFEIVKLLLDADVCNVDHQNKAGYTPIMLAALAAVEAEKDMRIVEELFGCGDVNAKASQAGQTALMLAVSHGRIDMVKGLLACGADVNIQDDEGSTALMCASEHGHVEIVKLLLAQPGCNGHLEDNDGSTALSIALEAGHKDIAVLLYAHVNFAKAQSPGTPRLGRKTSPGPTHRGSFD
chain 2: MVALSLKISIGNVVKTMQFEPSTMVYDACRMIRERIPEALAGPPNDFGLFLSDDDPKKGIWLEAGKALDYYMLRNGDTMEYRKKQRPLKIRMLDGTVKTIMVDDSKTVTDMLMTICARIGITNHDEYSLVRELMEEKKDEGTGTLRKDKTLLRDEKKMEKLKQKLHTDDELNWLDHGRTLREQGVEEHETLLLRRKFFYSDQNVDSRDPVQLNLLYVQARDDILNGSHPVSFDKACEFAGFQCQIQFGPHNEQKHKAGFLDLKDFLPKEYVKQKGERKIFQAHKNCGQMSEIEAKVRYVKLARSLKTYGVSFFLVKEKMKGKNKLVPRLLGITKECVMRVDEKTKEVIQEWSLTNIKRWAASPKSFTLDFGDYQDGYYSVQTTEGEQIAQLIAGYIDIILKKKKSKDHFGLEGDEESTMLEDSVSPKKSTVLQQQYNRVGKVEHGSVALPAIMRSGASGPENFQVGSMPPAQQQITSGQMHRGHMPPLTSAQQALTGTINSSMQAVQAAQATLDDFETLPPLGQDAASKAWRKNKMDESKHEIHSQVDAITAGTASVVNLTAGDPAETDYTAVGCAVTTISSNLTEMSRGVKLLAALLEDEGGNGRPLLQAAKGLAGAVSELLRSAQPASAEPRQNLLQAAGNVGQASGELLQQIGESDTDPHFQDVLMQLAKAVASAAAALVLKAKSVAQRTEDSGLQTQVIAAATQCALSTSQLVACTKVVAPTISSPVCQEQLVEAGRLVAKAVEGCVSASQAATEDGQLLRGVGAAATAVTQALNELLQHVKAHATGAGPAGRYDQATDTILTVTENIFSSMGDAGEMVRQARILAQATSDLVNAIKADAEGESDLENSRKLLSAAKILADATAKMVEAAKGAAAHPDSEEQQQRLREAAEGLRMATNAAAQNAIKKKLVQRLEHAAKQAAASATQTIAAAQHAASAPKASAGPQPLLVQSCKAVAEQIPLLVQGVRGSQAQPDSPSAQLALIAASQSFLQPGGKMVAAAKASVPTIQDQASAMQLSQCAKNLGTALAELRTAAQKAQEACGPLEMDSALSVVQNLEKDLQEIKAAARDGKLKPLPGETMEKCTQDLGNSTKAVSSAIAKLLGEIAQGNENYAGIAARDVAGGLRSLAQAARGVAALTSDPAVQAIVLDTASDVLDKASSLIEEAKKASGHPGDPESQQRLAQVAKAVTQALNRCVSCLPGQRDVDNALRAVGDASKRLLSDSLPPSTGTFQEAQSRLNEAAAGLNQAATELVQASRGTPQDLARASGRFGQDFSTFLEAGVEMAGQAPSQEDRAQVVSNLKGISMSSSKLLLAAKALSTDPASPNLKSQLAAAARAVTDSINQLITMCTQQAPGQKECDNALRQLETVRELLENPVQPINDMSYFGCLDSVMENSKVLGEAMTGISQNAKNGNLPEFGDAIATASKALCGFTEAAAQAAYLVGVSDPNSQAGQQGLVEPTQFARANQAIQMACQSLGEPGCTQAQVLSAATIVAKHTSALCNSCRLASARTANPTAKRQFVQSAKEVANSTANLVKTIKALDGDFTEENRAQCRAATAPLLEAVDNLSAFASNPEFSSVPAQISPEGRAAMEPIVISAKTMLESAGGLIQTARALAVNPRDPPRWSVLAGHSRTVSDSIKKLITSMRDKAPGQLECETAIAALNSCLRDLDQASLAAVSQQLAPREGISQEALHTQMLTAVQEISHLIEPLASAARAEASQLGHKVSQMAQYFEPLTLAAVGAASKTLSHPQQMALLDQTKTLAESALQLLYTAKEAGGNPKQAAHTQEALEEAVQMMTEAVEDLTTTLNEAASAAGVVGGMVDSITQAINQLDEGPMGDPEGSFVDYQTTMVRTAKAIAVTVQEMVTKSNTSPEELGPLANQLTSDYGRLASQAKPAAVAAENEEIGAHIKHRVQELGHGCSALVTKAGALQCSPSDVYTKKELIECARRVSEKVSHVLAALQAGNRGTQACITAASAVSGIIADLDTTIMFATAGTLNREGAETFADHREGILKTAKVLVEDTKVLVQNAAGSQEKLAQAAQSSVATITRLADVVKLGAASLGAEDPETQVVLINAVKDVAKALGDLISATKAAAGKVGDDPAVWQLKNSAKVMVTNVTSLLKTVKAVEDEATKGTRALEATTEHIRQELAVFCSPEPPAKTSTPEDFIRMTKGITMATAKAVAAGNSCRQEDVIATANLSRRAIADMLRACKEAAFHPEVAPDVRLRALHYGRECANGYLELLDHVLLTLQKPNPDLKQQLTGHSKRVAGSVTELIQAAEAMKGTEWVDPEDPTVIAENELLGAAAAIEAAAKKLEQLKPRAKPKEADESLNFEEQILEAAKSIAAATSALVKAASAAQRELVAQGKVGAIPANALDDGQWSQGLISAARMVAAATNNLCEAANAAVQGHASQEKLISSAKQVAASTAQLLVACKVKADQDSEAMKRLQAAGNAVKRASDNLVKAAQKAAAFEDQENETVVVKEKMVGGIAQIIAAQEEMLRKERELEEARKKLAQIRQQQYKFLPSELRDEH

Variants of B1 are the subject of this test. Briefly: mitochondria pulldown (MTS assay), Western blot quantification; HEK293T cells; triplicate experiments; read off a plot.
On to chain 1 V49E, for which the percent of parent was roughly 2%.
